The target in this assay is full length human TLR3 (human).

In the case of “TLR3.7 (eBiosciences, cat no 14-9039) (antibody)”, the % inhibition of poly(I:C)-induced NF-κB luciferase reporter came to 8%.

(Values after US9932404B2.)
